# From article PMC10371975, “Potential of Y. lipolytica epoxide hydrolase for efficient production of enantiopure (R)-1,2-octanediol” (AMB Express, 2023)
# B1: Yleh (Yarrowia lipolytica CLIB122) (protein)
# chain: MTDSLSLGYYQLFHKYAVLGDKRWHYLDIPPTSPSPALLGSGKTLMLCHGFPDSWYGWRKQIPILRNLGYRLLVPSQMGYTRSEAPLYPTPEPNEKGEYPELGLEDGTDALKDLYCYTGKFYAQCMDELLTQLGIPTVTIIGHDYGAYLGPKLYLYFPHRVEAIATSCWHYVPALKKFFAIPDFIKLAPSLSYQAYLIGDASKDFATREGSEPFLRQVFGGEGWGGSDSSVHMTEPEFQNYMTEFATGGRFLSYMVSTYKARRLTFEIEKQDFLDKGRTPESMQVDVPYLHVGAEQDMAFRPPMIKNLRKYVKPGRLDEVWIDASHWLMFEKADEFNHELVKWLDKIHGSQSKL
# notes: recombinant full-length 354-residue protein (ORF 1065 bp), pET28a+ vector, E. coli BL21AI host, Ni-NTA plus size exclusion purification (His tag implied); distinct from bifunctional Ylehd of the same yeast
# Substrate: CCCCCCC1CO1
# Test: purified protein
# Type: biochemical, Yarrowia lipolytica
# Conditions: 50 mM Tris-sulphate pH 8.0, 30 °C, 0.1-0.7 mM EO, 1 µg enzyme
protein,measurement,value
B1,Km,430 ± 17 µM
same,kcat,3.3458 ± 0.2163 s⁻¹
